Laboratory results taken from PMC5061367.

Experiments:
APOBEC3C I188 (human) [1] = target: APOBEC3C I188 (human) (UniProt Q9NRW3); test: cross-linking; 0.5 μM protein with 10 μM BS3 in 20 mM Hepes pH 7.5, 150 mM NaCl, 1 mM DTT, 1 hour at 21°C; SDS-PAGE and Western blot with anti-APOBEC3C
APOBEC3C I188 (human) [2] = target: APOBEC3C I188 (human) (UniProt Q9NRW3); test: SEC; 10 μg of purified enzyme on a 10 mL Superdex 200 column; 50 mM Tris pH 8.0, 200 mM NaCl, 1 mM DTT; masses from a Bio-Rad standard curve; fractions read by SDS-PAGE and Western blot

stoichiometry N (APOBEC3C I188 (human) [1]): 2
stoichiometry N (APOBEC3C I188 (human) [2]): 2
Substance: APOBEC3C I188 (from UniProt Q9NRW3 1-190) (enzyme)
